Laboratory results taken from PMC7904604.

Molecular target: GST-BLMP-1(ZnFs) (Caenorhabditis elegans, UniProt Q93560 508-642)
Test: competition

Chain of GST-BLMP-1(ZnFs) (Q93560 508-642): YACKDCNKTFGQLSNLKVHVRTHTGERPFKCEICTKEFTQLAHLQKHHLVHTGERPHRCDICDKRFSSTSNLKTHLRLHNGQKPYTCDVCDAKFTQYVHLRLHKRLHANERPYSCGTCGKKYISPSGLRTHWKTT

B1: non-specific sequence (dsDNA)
DNA 1: GGCTCTTCCGGTCGTGCAAGAGGAAATACAAAAAA
DNA 2: TTTTTTGTATTTCCTCTTGCACGACCGGAAGAGCC
binding result: no binding
